Assay results reported in the supplement of paper PMC10567573.

B1: MATN2 (parent)
chain: FSLKTFKRKSEVERAVKRMRHLST
B2: PTPLAD1 (parent)
chain: YSFYMLTCIDMDWKVLTWLRYTLW

Variants of: B1
Test: protein stability index of a GFP-peptide fusion (GPS, HEK-293T) (PSI 1-6); higher = more stable
Details: c terminus: a fixed tail appended
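Further: lentivirally expressed fusions sorted by FACS into six bins by GFP to DsRed ratio, PSI derived from sequencing read proportions per bin multiplied by bin number.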

Protein stability index, by site and new letter:
E13: V 2.11, R 2.22, L 2.28, I 2.29, H 2.37, D 2.52, N 2.83, Q 2.9, W 1.4, S 2.34, K 2.69, Y 2.94, P 3.15, G 1.83, A 2, F 2.08, T 2.41, C 1.83, M 2.25
S23: P 2.25, A 1.81, W 1.72, C 1.42, I 2.8, Y 2.3, T 1.89, V 1.28, D 3.11, N 2.53, E 2, K 2.64, R 2.35, G 2.1
V12: W 1.24, Y 2.12, M 2.11, K 3.17, A 2.36, G 2.91, N 1.87, R 3.19, Q 3.15, H 2.54, C 2.25, S 2.98, F 1.4, P 2.5, L 2.56, T 2.38, E 2.34
H21: G 1.75, A 2.77, D 2.76, Y 2.84, C 2.28, T 2.72, N 2.4, S 1.68, F 1.99, I 1.76, R 2.41, K 3.76, Q 1.87, V 1.3, L 1.46, P 2.58, E 2.28
M19: V 2.21, S 2.84, N 2.68, R 4.54, Y 2.5, T 2.84, E 3.34, F 2.18, W 2.9, P 2.14, C 2.61, A 3.21, H 2.89, K 3.67, I 4.04, D 2.76, L 2.31, Q 2.57
R18: L 1.97, T 2.26, S 2.21, N 2.52, I 2.16, D 2.8, Q 1.93, K 1.97, C 1.8, W 2.04, V 2.34, M 1.93, F 1.54, Y 3.03, P 2.36, H 2.4, A 1.96, G 2.8
V16: N 2.47, E 2.43, T 3.1, L 1.51, W 1.76, H 2.19, Q 2.92, A 2.82, F 3.4, P 2.33, G 2.71, Y 2.1, C 2.48, R 2.48, D 2.15, M 2.93, S 2.57, I 2.07
R14: W 2.25, S 2.49, K 3.11, F 2.65, V 2.75, H 2.28, L 1.96, T 2.87, N 2.46, C 1.83, D 2.73, M 3.08, E 2.49, G 2.15, P 2.49
A15: N 2.81, R 3.91, C 2.27, I 1.38, W 2.17, M 2.2, K 2.7, F 2.94, T 2.78, G 2.35, H 2.87, E 2.73, V 2.27, D 2.89, S 2.33, Q 2.58, P 2.43, Y 1.59
K17: Y 1.76, L 1.92, A 2.26, D 2.92, E 2.38, F 1.75, I 2.04, P 3.24, H 3.01, C 2.35, Q 2.13, S 2.65, V 2.69, M 2.53, R 1.87, T 2.34, N 2.5
E11: T 2.99, Y 2.09, V 2.38
T24: W 1.55, I 2.08, Q 1.55, H 2.57, V 1.62, S 2.53, P 2.35, K 3.38, G 3.01, Y 2.23, E 2.67, L 2.4, D 2.44, N 3, A 2.72
R20: G 2.38, H 2, P 3.21, Q 2.22, T 2.57, F 1.9, C 2.4, K 2.59, I 2.82, D 2.54, A 2.14, V 1.6, W 1.24, E 2.54, S 2.42, L 2.81, Y 2.32, N 2.54, M 2.08
L22: I 2.36, C 2.79, N 2.47, H 2.59, Y 1.93, K 3.09, S 1.92, E 3.18, R 2.68, V 2.58, M 2.57, F 2.1, Q 2.62, G 2.79, A 2.81, T 3.17, D 2.96

Variants of: B2
Test: as above
Details: c terminus: a fixed tail appended

Protein stability index of substitutions, site by site:
S2: M 2.26
K14: Y 2.61, M 1.28, I 2.92, T 3.16
Y1: K 2.1, T 2.2, L 1.47, P 1.7, W 3.32, H 2.28, S 2.07
L16: P 2.32, R 2.13, Y 1.59
V15: W 2.22, M 1.03, L 1.89, C 3.85, Y 3.09, E 1.86
T17: I 2.68, Q 2.82
W24: D 4.01, P 2.58, I 3.4, F 2.24
M11: W 2.13, H 1.6, E 2.15, D 1.56
W18: A 2.61, M 1.84, F 3.34, V 2.83
Y21: E 3.44, Q 2.17, G 3.32, S 3.16
L19: E 2.83, A 2.9, Q 3.25, I 2.06
D10: L 1.38
D12: N 2.65, L 2.09, K 3.14, F 2.23, E 2.68
I9: Q 2.85, A 2.07, P 2.05, M 2.6
W13: Y 4.08, F 2.73, D 1.74, K 2.71, V 3.87, N 4.03
L6: F 2.33, N 2.48, H 3.22, Q 1.31
C8: E 2.25, M 1.73, G 3.31
T22: Q 2.2, A 2.78, R 2.25
M5: G 2.15, R 2.7, I 3.07, V 2.62, N 2.21
R20: C 1.52, W 1.06, G 3, H 4.19, Y 2.42, N 4.06
L23: E 2.74, I 2.88, C 4.3
Y4: W 2.12, E 1.77, S 1.77, G 2.99, D 1.99, C 4.29, N 3.92, L 3.13, F 2.53, I 3.63
F3: W 2.37, K 1.69, P 2.51, T 1.68, Q 3.31, N 1.46, L 1.03
T7: K 2.49, M 2.02, N 2.85, V 1.27, A 2.65, F 3.29, G 1.4, E 3.27, L 2.43
